Experimental data: patent US20210206811A1

Biological target: retromer endogenous in HeLa cells (detected through its subunit Vps35) (UniProt Q96QK1)
Assay: cell-based or functional assay

Sequence of retromer endogenous in HeLa cells (detected through its subunit Vps35) (O75436 whole entry): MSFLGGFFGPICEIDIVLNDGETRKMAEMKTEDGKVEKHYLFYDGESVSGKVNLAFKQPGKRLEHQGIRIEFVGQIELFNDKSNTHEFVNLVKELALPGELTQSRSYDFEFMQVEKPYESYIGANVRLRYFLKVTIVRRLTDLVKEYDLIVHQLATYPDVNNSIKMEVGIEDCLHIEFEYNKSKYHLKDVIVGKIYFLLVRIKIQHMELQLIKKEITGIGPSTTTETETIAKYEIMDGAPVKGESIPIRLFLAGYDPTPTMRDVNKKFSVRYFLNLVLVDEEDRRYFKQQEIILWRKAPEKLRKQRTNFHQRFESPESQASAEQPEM

With “3R mutant HPV16 pseudovirus (L2 with three arginines in place of RKRRKR) (from UniProt P03101 1-505)” the Vps35/L1 PLA signal was 75 % reduction.
